# T1: skeletal triadin 95 kDa (trisk95) (rabbit (endogenous in skeletal muscle …, UniProt Q28820 1-706))
# T1 construct: triadin, skeletal muscle 95 kDa isoform, isolated from SR vesicles of New Zealand White rabbit back and leg muscle; also called triadin skeletal muscle 95 kDa; source: purified from rabbit skeletal SR vesicles (SDS preparative gel electrophoresis)
# T1 sequence (looked up): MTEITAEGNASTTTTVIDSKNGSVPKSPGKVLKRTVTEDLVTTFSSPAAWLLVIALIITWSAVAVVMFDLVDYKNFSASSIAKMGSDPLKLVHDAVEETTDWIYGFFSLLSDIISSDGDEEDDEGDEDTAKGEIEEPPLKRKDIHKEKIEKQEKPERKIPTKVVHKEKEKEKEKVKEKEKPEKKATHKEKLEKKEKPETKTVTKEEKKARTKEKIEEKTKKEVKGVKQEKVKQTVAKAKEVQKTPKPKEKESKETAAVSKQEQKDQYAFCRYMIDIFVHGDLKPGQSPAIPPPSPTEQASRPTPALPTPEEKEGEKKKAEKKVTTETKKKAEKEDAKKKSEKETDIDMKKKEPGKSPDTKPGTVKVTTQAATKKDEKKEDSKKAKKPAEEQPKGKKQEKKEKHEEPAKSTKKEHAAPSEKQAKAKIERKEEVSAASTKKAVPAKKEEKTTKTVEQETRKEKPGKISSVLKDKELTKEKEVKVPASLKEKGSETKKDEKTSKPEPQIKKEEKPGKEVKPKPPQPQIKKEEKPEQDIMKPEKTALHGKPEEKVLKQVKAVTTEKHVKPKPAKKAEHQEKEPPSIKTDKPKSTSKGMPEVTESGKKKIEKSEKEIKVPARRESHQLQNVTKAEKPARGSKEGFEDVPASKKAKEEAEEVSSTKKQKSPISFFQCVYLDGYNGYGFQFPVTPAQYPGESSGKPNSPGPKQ
# How the values were obtained:
# junctin = assay: co-immunoprecipitation (CSQ1 IP, Western blot densitometry); conditions: 1 mM Ca2+; parent: est. 100; read off a plot
# [1] = biological target: ryanodine receptor type 1 (RyR1), purified (rabbit (endogenous in skeletal muscle …, UniProt P11716 1-5037)); assay: cell-based or functional assay
# Sequence of ryanodine receptor type 1 (RyR1), purified (rabbit (P11716 whole entry): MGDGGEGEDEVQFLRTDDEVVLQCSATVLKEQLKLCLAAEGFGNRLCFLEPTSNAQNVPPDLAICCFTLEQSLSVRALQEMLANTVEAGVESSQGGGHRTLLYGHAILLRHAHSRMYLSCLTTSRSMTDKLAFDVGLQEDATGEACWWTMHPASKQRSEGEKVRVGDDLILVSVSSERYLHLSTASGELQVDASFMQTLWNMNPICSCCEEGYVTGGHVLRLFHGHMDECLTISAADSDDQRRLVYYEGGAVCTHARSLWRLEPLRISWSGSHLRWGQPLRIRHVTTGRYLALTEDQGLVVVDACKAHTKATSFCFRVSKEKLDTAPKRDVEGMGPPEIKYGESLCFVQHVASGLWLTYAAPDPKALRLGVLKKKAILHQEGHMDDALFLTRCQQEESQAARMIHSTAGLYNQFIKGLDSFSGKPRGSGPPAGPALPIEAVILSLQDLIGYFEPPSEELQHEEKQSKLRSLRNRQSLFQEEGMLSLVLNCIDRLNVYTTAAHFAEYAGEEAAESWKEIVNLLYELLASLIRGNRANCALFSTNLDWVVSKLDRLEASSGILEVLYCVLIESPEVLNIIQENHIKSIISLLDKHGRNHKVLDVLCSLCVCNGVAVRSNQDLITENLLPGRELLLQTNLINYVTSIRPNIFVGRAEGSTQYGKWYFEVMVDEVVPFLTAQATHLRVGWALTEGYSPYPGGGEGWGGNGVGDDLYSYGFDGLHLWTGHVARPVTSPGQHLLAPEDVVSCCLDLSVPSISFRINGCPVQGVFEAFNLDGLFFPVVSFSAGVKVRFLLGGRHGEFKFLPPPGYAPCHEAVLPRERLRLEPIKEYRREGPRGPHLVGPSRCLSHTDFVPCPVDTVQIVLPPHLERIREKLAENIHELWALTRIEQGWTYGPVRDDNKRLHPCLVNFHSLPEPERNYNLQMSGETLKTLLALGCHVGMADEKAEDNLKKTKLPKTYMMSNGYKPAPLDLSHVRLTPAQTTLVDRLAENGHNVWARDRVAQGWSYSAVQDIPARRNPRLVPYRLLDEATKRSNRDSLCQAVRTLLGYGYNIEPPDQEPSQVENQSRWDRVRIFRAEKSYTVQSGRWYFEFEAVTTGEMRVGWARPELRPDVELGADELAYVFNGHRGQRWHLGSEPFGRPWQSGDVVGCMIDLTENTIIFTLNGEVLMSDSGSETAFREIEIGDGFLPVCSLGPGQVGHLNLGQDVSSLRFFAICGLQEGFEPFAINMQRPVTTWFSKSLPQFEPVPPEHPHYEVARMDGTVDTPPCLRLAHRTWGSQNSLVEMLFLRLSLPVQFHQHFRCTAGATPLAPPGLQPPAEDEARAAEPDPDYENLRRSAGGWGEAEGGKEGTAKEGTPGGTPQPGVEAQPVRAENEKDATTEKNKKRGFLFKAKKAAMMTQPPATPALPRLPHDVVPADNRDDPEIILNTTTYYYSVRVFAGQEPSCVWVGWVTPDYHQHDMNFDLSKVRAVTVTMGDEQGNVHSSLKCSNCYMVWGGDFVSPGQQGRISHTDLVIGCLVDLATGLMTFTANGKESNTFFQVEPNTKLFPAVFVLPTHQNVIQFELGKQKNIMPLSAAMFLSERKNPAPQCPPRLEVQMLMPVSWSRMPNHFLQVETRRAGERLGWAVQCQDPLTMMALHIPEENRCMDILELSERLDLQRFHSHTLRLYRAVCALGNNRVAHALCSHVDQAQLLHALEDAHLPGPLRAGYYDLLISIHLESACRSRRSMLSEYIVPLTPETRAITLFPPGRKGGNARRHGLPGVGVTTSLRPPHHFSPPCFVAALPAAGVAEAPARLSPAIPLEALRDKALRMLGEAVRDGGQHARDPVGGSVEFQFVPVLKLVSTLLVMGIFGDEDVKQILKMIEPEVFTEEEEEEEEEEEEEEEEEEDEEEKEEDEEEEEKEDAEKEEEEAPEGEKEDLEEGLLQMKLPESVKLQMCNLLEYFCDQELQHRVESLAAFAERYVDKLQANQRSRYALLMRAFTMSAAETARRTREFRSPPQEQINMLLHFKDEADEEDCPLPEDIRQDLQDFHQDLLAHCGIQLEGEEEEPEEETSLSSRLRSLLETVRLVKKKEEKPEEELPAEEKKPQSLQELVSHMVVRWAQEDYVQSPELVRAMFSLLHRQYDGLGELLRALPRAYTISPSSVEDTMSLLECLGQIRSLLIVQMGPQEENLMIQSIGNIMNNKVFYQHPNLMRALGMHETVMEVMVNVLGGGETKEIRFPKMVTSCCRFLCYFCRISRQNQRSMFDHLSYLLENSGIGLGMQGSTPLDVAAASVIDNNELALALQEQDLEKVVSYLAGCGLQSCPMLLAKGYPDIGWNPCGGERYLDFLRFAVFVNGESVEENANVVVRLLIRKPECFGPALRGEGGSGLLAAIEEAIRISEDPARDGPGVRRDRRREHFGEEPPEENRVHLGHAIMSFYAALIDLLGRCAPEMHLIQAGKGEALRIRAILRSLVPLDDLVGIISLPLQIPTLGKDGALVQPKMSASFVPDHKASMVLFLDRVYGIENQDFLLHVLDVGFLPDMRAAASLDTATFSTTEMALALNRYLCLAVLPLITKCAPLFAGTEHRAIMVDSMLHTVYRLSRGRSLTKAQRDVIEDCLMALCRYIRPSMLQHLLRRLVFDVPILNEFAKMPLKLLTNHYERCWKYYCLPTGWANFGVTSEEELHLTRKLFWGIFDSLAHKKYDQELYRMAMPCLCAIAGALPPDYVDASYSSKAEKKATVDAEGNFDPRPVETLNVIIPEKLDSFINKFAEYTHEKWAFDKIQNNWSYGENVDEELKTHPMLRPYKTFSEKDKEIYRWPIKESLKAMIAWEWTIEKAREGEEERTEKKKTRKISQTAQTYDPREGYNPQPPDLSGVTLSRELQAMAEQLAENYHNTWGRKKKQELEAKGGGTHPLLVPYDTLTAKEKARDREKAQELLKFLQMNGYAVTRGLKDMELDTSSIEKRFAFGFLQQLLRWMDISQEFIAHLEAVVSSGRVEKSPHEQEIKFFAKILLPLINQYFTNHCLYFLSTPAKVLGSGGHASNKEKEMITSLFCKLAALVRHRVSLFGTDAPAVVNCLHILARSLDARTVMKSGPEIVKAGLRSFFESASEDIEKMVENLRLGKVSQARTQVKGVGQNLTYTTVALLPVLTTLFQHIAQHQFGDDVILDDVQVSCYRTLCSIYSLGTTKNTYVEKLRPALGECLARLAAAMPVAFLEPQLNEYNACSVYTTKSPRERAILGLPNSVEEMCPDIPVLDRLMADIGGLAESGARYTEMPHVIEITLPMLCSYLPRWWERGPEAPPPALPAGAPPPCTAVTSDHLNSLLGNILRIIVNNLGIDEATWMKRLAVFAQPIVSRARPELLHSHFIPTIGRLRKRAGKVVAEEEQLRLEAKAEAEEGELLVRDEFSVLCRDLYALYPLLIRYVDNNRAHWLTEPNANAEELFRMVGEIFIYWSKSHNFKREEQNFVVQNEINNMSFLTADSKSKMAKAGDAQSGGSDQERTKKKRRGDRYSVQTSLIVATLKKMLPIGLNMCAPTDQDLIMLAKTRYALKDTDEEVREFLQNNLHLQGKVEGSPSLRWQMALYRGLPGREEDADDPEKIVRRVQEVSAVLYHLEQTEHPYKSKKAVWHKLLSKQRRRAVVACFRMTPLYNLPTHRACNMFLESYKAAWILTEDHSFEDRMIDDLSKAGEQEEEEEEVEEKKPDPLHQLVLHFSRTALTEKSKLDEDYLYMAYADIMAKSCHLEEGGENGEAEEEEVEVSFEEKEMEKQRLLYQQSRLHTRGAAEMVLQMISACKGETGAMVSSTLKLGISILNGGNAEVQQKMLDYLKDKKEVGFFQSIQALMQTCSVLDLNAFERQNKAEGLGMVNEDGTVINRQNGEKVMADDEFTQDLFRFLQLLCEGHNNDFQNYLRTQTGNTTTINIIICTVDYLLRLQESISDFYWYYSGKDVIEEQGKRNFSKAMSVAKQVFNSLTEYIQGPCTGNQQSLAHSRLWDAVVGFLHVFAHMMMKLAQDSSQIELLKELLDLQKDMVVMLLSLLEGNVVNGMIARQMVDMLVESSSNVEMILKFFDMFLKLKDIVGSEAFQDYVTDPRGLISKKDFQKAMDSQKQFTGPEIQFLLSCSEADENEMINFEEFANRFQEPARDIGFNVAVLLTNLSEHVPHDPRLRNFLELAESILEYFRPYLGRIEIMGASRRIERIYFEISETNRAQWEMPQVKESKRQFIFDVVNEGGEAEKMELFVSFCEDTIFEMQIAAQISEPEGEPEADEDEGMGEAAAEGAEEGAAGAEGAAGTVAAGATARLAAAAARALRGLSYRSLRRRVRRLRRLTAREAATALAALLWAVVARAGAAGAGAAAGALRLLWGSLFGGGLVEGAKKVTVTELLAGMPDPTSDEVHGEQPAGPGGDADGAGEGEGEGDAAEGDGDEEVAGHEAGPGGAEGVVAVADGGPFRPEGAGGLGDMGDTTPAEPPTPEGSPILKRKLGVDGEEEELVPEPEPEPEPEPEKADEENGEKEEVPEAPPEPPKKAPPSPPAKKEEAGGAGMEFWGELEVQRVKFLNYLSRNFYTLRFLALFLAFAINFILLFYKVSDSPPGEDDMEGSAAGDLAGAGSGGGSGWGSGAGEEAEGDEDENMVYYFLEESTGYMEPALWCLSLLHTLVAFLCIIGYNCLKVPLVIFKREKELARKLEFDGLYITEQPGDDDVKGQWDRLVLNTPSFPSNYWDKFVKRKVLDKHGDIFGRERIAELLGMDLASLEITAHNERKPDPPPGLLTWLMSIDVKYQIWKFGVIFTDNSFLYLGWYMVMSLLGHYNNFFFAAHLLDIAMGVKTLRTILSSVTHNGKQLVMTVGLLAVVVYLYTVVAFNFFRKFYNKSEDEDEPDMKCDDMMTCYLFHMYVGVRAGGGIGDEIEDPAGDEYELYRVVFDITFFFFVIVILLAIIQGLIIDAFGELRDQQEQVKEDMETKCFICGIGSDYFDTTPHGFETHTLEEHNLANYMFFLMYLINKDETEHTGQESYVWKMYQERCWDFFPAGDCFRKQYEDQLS
# [2] = biological target: T1, skeletal triadin 95 kDa (trisk95); assay: co-IP; purified CSQ1 construct coupled to anti-CSQ1/protein A/G agarose (Pierce kit), then exposed to purified trisk95 or junctin; 20 mM MOPS, 150 mM NaCl, 1 mM CaCl2, pH 7.4; CSQ1 to partner 2:1 by weight; Western blot; conditions: both partners purified
percent of parent (% relative binding) (junctin),binding result [2],Molecule,other results
92,–,"wild-type (WT) calsequestrin type 1 (CSQ1), rabbit (from UniProt P07221) D363A; D365A; D367A",–
110,–,"wild-type (WT) calsequestrin type 1 (CSQ1), rabbit (from UniProt P07221) D365A; D367A",–
110,–,"wild-type (WT) calsequestrin type 1 (CSQ1), rabbit (from UniProt P07221) D367A",–
–,binds,"wild-type (WT) calsequestrin type 1 (CSQ1), rabbit (natural protein, UniProt P07221 29-395, looked up, GST was cleaved with Factor Xa for single channel and 45Ca studies; probably GST-CSQ1 on Glutathione Sepharose; the discussion calls WT 'full-length CSQ1', while the numbering (C-terminus = 367) is that of the mature protein; also called WT CSQ1; WT CSQ; source: rabbit CSQ1 cDNA in pGEX5x1, expressed as previously described [34], purified) EEGLDFPEYDGVDRVINVNAKNYKNVFKKYEVLALLYHEPPEDDKASQRQFEMEELILELAAQVLEDKGVGFGLVDSEKDAAVAKKLGLTEEDSIYVFKEDEVIEYDGEFSADTLVEFLLDVLEDPVELIEGERELQAFENIEDEIKLIGYFKNKDSEHYKAFKEAAEEFHPYIPFFATFDSKVAKKLTLKLNEIDFYEAFMEEPVTIPDKPNSEEEIVNFVEEHRRSTLRKLKPESMYETWEDDMDGIHIVAFAEEADPDGYEFLEILKSVAQDNTDNPDLSIIWIDPDDFPLLVPYWEKTFDIDLSAPQIGVVNVTDADSVWMEMDDEEDLPSAEELEDWLEDVLEGEINTEDDDDEDDDDDDDD",activation of purified RyR1 in lipid bilayers by WT CSQ1 [1]: ~2.8 fold
–,binds,"CSQ1DA3 (rabbit CSQ1 with three alternate C-terminal acidic residues changed to alanine) (natural protein, UniProt P07221 29-395, looked up, GST state as for m1; also called CSQ1D∆3; source: rabbit CSQ1 cDNA in pGEX5x1, expressed as previously described [34], purified) EEGLDFPEYDGVDRVINVNAKNYKNVFKKYEVLALLYHEPPEDDKASQRQFEMEELILELAAQVLEDKGVGFGLVDSEKDAAVAKKLGLTEEDSIYVFKEDEVIEYDGEFSADTLVEFLLDVLEDPVELIEGERELQAFENIEDEIKLIGYFKNKDSEHYKAFKEAAEEFHPYIPFFATFDSKVAKKLTLKLNEIDFYEAFMEEPVTIPDKPNSEEEIVNFVEEHRRSTLRKLKPESMYETWEDDMDGIHIVAFAEEADPDGYEFLEILKSVAQDNTDNPDLSIIWIDPDDFPLLVPYWEKTFDIDLSAPQIGVVNVTDADSVWMEMDDEEDLPSAEELEDWLEDVLEGEINTEDDDDEDDDADADA",–
–,–,"CSQ1_(∆C14) (rabbit CSQ1 lacking the whole C-terminal tail, residues 354-367) (domain or fragment, UniProt P07221 29-381, looked up) EEGLDFPEYDGVDRVINVNAKNYKNVFKKYEVLALLYHEPPEDDKASQRQFEMEELILELAAQVLEDKGVGFGLVDSEKDAAVAKKLGLTEEDSIYVFKEDEVIEYDGEFSADTLVEFLLDVLEDPVELIEGERELQAFENIEDEIKLIGYFKNKDSEHYKAFKEAAEEFHPYIPFFATFDSKVAKKLTLKLNEIDFYEAFMEEPVTIPDKPNSEEEIVNFVEEHRRSTLRKLKPESMYETWEDDMDGIHIVAFAEEADPDGYEFLEILKSVAQDNTDNPDLSIIWIDPDDFPLLVPYWEKTFDIDLSAPQIGVVNVTDADSVWMEMDDEEDLPSAEELEDWLEDVLEGEINT",rise in activity (open probability) of purified RyR1 in lipid bilayers after trans addition of CSQ1∆C14 [1]: ~1.9 fold

# Reference: PMC4389316, “C-terminal residues of skeletal muscle calsequestrin are essential for calcium binding and for skeletal ryanodine receptor inhibition” (Skeletal Muscle, 2015)
